The values that follow come from US20140274782A1, “AFFINITY REAGENTS AND METHODS FOR DETECTION, PURIFICATION, AND PROTEOMIC ANALYSIS OF METHYLATED PROTEINS” (The Board of Trustees of the Leland Stanford Junior …, priority 2013, published 2014).

The labels stand for the following.
B1: DRG1 (protein, UniProt Q9Y295 2-367, looked up)
Developmentally-regulated …: SSTLAKIAEIEAEMARTQKNKATAHHLGLLKARLAKLRRELITPKGGGGGGPGEGFDVAKTGDARIGFVGFPSVGKSTLLSNLAGVYSEVAAYEFTTLTTVPGVIRYKGAKIQLLDLPGIIEGAKDGKGRGRQVIAVARTCNLILIVLDVLKPLGHKKIIENELEGFGIRLNSKPPNIGFKKKDKGGINLTATCPQSELDAETVKSILAEYKIHNADVTLRSDATADDLIDVVEGNRVYIPCIYVLNKIDQISIEELDIIYKVPHCVPISAHHRWNFDDLLEKIWDYLKLVRIYTKPKGQLPDYTSPVVLPYSRTTVEDFCMKIHKNLIKEFKYALVWGLSVKHNPQKVGKDHTLEDEDVIQIVKK
B2: SFPQ (protein, UniProt P23246 1-707, looked up)
Splicing factor, proline- and …: MSRDRFRSRGGGGGGFHRRGGGGGRGGLHDFRSPPPGMGLNQNRGPMGPGPGQSGPKPPIPPPPPHQQQQQPPPQQPPPQQPPPHQPPPHPQPHQQQQPPPPPQDSSKPVVAQGPGPAPGVGSAPPASSSAPPATPPTSGAPPGSGPGPTPTPPPAVTSAPPGAPPPTPPSSGVPTTPPQAGGPPPPPAAVPGPGPGPKQGPGPGGPKGGKMPGGPKPGGGPGLSTPGGHPKPPHRGGGEPRGGRQHHPPYHQQHHQGPPPGGPGGRSEEKISDSEGFKANLSLLRRPGEKTYTQRCRLFVGNLPADITEDEFKRLFAKYGEPGEVFINKGKGFGFIKLESRALAEIAKAELDDTPMRGRQLRVRFATHAAALSVRNLSPYVSNELLEEAFSQFGPIERAVVIVDDRGRSTGKGIVEFASKPAARKAFERCSEGVFLLTTTPRPVIVEPLEQLDDEDGLPEKLAQKNPMYQKERETPPRFAQHGTFEYEYSQRWKSLDEMEKQQREQVEKNMKDAKDKLESEMEDAYHEHQANLLRQDLMRRQEELRRMEELHNQEMQKRKEMQLRQEEERRRREEEMMIRQREMEEQMRRQREESYSRMGYMDPRERDMRMGGGGAMNMGDPYGSGGQKFPPLGGGGGIGYEANPGVPPATMSGSMMGSDMRTERFGQGGAGPVGGQGPRGMGPGTPAGYGRGREEYEGPNKKPRF
B3: DDX17 (protein, UniProt Q92841 1-729, looked up)
Probable ATP-dependent RNA …: MPTGFVAPILCVLLPSPTREAATVASATGDSASERESAAPAAAPTAEAPPPSVVTRPEPQALPSPAIRAPLPDLYPFGTMRGGGFGDRDRDRDRGGFGARGGGGLPPKKFGNPGERLRKKKWDLSELPKFEKNFYVEHPEVARLTPYEVDELRRKKEITVRGGDVCPKPVFAFHHANFPQYVMDVLMDQHFTEPTPIQCQGFPLALSGRDMVGIAQTGSGKTLAYLLPAIVHINHQPYLERGDGPICLVLAPTRELAQQVQQVADDYGKCSRLKSTCIYGGAPKGPQIRDLERGVEICIATPGRLIDFLESGKTNLRRCTYLVLDEADRMLDMGFEPQIRKIVDQIRPDRQTLMWSATWPKEVRQLAEDFLRDYTQINVGNLELSANHNILQIVDVCMESEKDHKLIQLMEEIMAEKENKTIIFVETKRRCDDLTRRMRRDGWPAMCIHGDKSQPERDWVLNEFRSGKAPILIATDVASRGLDVEDVKFVINYDYPNSSEDYVHRIGRTARSTNKGTAYTFFTPGNLKQARELIKVLEEANQAINPKLMQLVDHRGGGGGGGGRSRYRTTSSANNPNLMYQDECDRRLRGVKDGGRRDSASYRDRSETDRAGYANGSGYGSPNSAFGAQAGQYTYGQGTYGAAAYGTSSYTAQEYGAGTYGASSTTSTGRSSQSSSQQFSGIGRSGQQPQPLMSQQFAQPPGATNMIGYMGQTAYQYPPPPPPPPPSRK
B4: SEPT2 (protein, UniProt Q15019 1-361, looked up)
Septin-2: MSKQQPTQFINPETPGYVGFANLPNQVHRKSVKKGFEFTLMVVGESGLGKSTLINSLFLTDLYPERVIPGAAEKIERTVQIEASTVEIEERGVKLRLTVVDTPGYGDAINCRDCFKTIISYIDEQFERYLHDESGLNRRHIIDNRVHCCFYFISPFGHGLKPLDVAFMKAIHNKVNIVPVIAKADTLTLKERERLKKRILDEIEEHNIKIYHLPDAESDEDEDFKEQTRLLKASIPFSVVGSNQLIEAKGKKVRGRLYPWGVVEVENPEHNDFLKLRTMLITHMQDLQEVTQDLHYENFRSERLKRGGRKVENEDMNKDQILLEKEAELRRMQEMIARMQAQMQMQMQGGDGDGGALGHHV
B5: C14orf166 (protein, UniProt Q9Y224 1-244, looked up)
RNA transcription, …: MFRRKLTALDYHNPAGFNCKDETEFRNFIVWLEDQKIRHYKIEDRGNLRNIHSSDWPKFFEKYLRDVNCPFKIQDRQEAIDWLLGLAVRLEYGDNAEKYKDLVPDNSKTADNATKNAEPLINLDVNNPDFKAGVMALANLLQIQRHDDYLVMLKAIRILVQERLTQDAVAKANQTKEGLPVALDKHILGFDTGDAVLNEAAQILRLLHIEELRELQTKINEAIVAVQAIIADPKTDHRLGKVGR

In one assay the test system is 3×MBT domain of L3MBTL1. Put plainly: Triple SILAC pull-down, 3xMBT/3xMBTD355N ratio (cytoplasmic, nuclear and chromatin fractions of 293T cells).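 Further: proteins quantified with MaxQuant, requiring at least two unique peptides and quantification in both label directions, normalized to the mean of proteins from a digested loading control.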 It counts as binding, human. The conditions noted are these: SILAC ratio, pull-down 3xMBT vs 3xMBTD355N; experiment with UNC0638 in heavy SILAC media.
In the case of B1, the “3xMBT/D355N UNC Heavy” value stood at 3.49 log base 2.
Same read-out and setting: the result for B2 reads 3.19 log base 2; that for B3, 2.61 log base 2; that for B4, 1.89 log base 2.
On the same count and under the same terms, with B5 the figure was 3.09 log base 2.

The assay is the same for the next values; noted with them: SILAC ratio, pull-down 3xMBT vs 3xMBTD355N; experiment with UNC0638 in light SILAC media.
Turning to B1, the “3xMBT/D355N UNC Light” value stood at 3.66 log base 2.
Turning to B2, the “3xMBT/D355N UNC Light” value is reported as 3.86 log base 2.
Still for that read-out and setting: with B3 the figure was 2.86 log base 2.
On the same count and under the same terms, the result for B4 reads 2.49 log base 2.
The same measure, in the same setting: the result for B5 reads 3.13 log base 2.

For a further assay, the target named is T1, G9a and GLP (Homo sapiens, UniProt Q96KQ7+Q9H9B1).
T1 sequence (Q96KQ7 2-1210 limits assumed): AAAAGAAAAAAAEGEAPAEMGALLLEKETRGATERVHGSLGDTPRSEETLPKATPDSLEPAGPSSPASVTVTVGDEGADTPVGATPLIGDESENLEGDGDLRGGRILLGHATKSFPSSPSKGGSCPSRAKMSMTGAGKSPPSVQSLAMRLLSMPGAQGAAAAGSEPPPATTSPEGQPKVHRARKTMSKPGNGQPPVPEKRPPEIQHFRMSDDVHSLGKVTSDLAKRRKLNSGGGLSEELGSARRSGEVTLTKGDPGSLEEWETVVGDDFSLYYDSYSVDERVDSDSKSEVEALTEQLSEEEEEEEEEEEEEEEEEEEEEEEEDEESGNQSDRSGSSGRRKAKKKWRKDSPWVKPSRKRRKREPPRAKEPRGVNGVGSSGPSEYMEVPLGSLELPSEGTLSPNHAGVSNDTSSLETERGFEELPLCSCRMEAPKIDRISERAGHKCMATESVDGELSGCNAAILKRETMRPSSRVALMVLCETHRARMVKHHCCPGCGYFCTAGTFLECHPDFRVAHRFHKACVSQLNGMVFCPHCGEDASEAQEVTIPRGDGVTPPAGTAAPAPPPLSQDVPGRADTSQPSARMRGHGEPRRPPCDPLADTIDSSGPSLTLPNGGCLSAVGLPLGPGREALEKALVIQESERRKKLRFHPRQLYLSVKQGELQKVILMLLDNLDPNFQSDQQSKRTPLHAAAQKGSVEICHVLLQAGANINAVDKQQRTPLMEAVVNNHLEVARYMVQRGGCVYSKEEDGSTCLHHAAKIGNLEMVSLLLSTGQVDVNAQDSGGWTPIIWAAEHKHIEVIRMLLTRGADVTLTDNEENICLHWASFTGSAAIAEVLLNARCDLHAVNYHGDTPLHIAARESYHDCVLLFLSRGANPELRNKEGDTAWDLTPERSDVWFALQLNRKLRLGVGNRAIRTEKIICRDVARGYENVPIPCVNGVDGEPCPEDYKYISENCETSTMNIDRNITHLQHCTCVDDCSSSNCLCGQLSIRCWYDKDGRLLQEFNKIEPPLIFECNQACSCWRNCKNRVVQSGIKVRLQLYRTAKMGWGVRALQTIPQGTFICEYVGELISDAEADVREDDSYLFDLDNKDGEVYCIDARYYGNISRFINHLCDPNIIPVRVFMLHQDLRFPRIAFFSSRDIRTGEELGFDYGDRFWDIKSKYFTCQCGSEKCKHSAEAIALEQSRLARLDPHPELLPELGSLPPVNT
T1 sequence (Q9H9B1 2-1298 limits assumed): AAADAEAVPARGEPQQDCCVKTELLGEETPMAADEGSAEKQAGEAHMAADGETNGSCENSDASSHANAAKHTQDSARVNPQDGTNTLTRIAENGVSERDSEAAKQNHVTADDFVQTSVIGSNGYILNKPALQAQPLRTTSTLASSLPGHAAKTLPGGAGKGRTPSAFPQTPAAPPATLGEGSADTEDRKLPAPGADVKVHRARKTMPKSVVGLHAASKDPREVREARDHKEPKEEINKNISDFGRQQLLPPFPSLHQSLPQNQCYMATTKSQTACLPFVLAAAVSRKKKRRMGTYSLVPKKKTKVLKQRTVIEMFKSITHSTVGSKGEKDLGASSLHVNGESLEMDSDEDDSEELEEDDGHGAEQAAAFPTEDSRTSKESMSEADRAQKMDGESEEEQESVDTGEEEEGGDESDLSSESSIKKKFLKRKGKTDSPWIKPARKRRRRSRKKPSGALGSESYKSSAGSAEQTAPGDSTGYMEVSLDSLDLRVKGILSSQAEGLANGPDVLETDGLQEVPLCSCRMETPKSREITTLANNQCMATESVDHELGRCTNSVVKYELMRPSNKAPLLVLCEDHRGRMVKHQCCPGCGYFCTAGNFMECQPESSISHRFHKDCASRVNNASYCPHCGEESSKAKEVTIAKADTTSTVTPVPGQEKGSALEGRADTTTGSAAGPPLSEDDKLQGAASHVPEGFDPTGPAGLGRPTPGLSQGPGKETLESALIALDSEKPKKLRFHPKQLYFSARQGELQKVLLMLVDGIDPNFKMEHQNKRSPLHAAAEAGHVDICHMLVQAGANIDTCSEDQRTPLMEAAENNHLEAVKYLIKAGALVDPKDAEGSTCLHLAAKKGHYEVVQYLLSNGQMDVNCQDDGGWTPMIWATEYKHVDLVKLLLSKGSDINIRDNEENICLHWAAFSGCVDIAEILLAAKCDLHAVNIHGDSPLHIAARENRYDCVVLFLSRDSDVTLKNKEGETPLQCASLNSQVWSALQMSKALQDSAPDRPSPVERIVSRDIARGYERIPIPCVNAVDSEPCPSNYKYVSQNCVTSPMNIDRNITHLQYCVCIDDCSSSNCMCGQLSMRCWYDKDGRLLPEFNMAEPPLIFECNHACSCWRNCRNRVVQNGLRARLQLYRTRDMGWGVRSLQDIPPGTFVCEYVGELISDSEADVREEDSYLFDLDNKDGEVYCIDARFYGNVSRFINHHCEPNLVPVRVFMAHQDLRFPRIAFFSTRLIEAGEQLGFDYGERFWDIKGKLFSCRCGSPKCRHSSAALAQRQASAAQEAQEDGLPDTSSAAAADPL
The assay can be described thus: Triple SILAC pull-down after UNC0638 treatment of 293T cells, DMSO/UNC0638 ratio of protein captured by 3×MBT.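 Further: mass spectrometry (Q-Exactive) SILAC quantitation, DMSO/UNC0638 ratio computed after subtracting 3×MBTD355N mutant pull-down background, only proteins with at least twofold 3×MBT over mutant signal considered.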 It counts as cell-based. Further details: cells were treated for 24 hours with UNC0638 at 2.5 μM or DMSO vehicle control; endogenous in cells; host or cells: HEK 293T. The conditions noted are these: SILAC ratio DMSO/UNC0638 of protein pulled down with 3xMBT; UNC0638 in heavy SILAC media.
Turning to B1, the “Relative to UNC0638 UNC Heavy” value was determined as 0.36 log base 2.
Same read-out and setting: the result for B2 reads 0.08 log base 2.
The same measure, in the same setting: the result for B3 reads 0.21 log base 2.
The same measure, in the same setting: the result for B4 reads 0.21 log base 2; that for B5, 0.09 log base 2.

The assay is the same for the next values; noted with them: SILAC ratio DMSO/UNC0638 of protein pulled down with 3xMBT; UNC0638 in light SILAC media.
With B1, the “Relative to UNC0638 UNC Light” value was −0.03 log base 2.
Regarding B2, the “Relative to UNC0638 UNC Light” value worked out at 0.25 log base 2.
On the same count and under the same terms, the result for B3 reads 0.12 log base 2.
Take B4: the “Relative to UNC0638 UNC Light” value is listed as 0.12 log base 2.
Still for that read-out and setting: with B5 the figure was 0.24 log base 2.

Staying with this assay, now noted: average of UNC Light and UNC Heavy experiments.
Turning to B1, the “Relative to UNC0638 Average” value is given as 0.16 log base 2.
Same read-out and setting: with B2 the figure was 0.17 log base 2; with B3, 0.16 log base 2; with B4, 0.17 log base 2.
The same measure, in the same setting: the result for B5 reads 0.16 log base 2.
